In PMC6941230:

Target: T1, Rox1 (Saccharomyces cerevisiae, UniProt P25042 1-368)
T1 sequence: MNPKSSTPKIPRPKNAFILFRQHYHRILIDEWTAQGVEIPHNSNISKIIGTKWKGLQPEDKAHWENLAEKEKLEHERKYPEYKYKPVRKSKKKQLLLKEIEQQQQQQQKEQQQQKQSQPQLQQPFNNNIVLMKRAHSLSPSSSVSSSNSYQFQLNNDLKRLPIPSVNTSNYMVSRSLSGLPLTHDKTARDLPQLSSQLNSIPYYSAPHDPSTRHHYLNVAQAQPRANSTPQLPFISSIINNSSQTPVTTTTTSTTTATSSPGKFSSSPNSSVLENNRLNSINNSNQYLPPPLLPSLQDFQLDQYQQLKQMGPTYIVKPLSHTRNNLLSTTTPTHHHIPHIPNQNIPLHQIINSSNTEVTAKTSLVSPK
Experiment: EMSA

B1: HMG6bp (dsDNA)
DNA 1: TGATTGTCAATTTAGTTAATCATTGTTATTAATAAAGGAAAGATATAAAA
DNA 2: TTTTATATCTTTCCTTTATTAATAACAATGATTAACTAAATTGACAATCA
Q: Does B1 bind?
A: binds
